From US20250116673A1 (published 2025) come the findings set out here.

The target of this assay is T1, SARS-CoV-2 Spike protein peptide on HLA-DPA1*01:03 / HLA-DPB1*04:01 (human).
T1 peptide: TFEYVSQPFLMDLE
As to the kind of experiment: multimer staining.

B1: TCR4.1 (TCR)
alpha TRAV35 TRAJ42 CDR3: CAGMNYGGSQGNLIF
beta TRBV4-1 TRBJ1-2 CDR3: CASSQGVGYTF
Turning to B1, the binding result was “recognises”.

B2: TCR6.3 (TCR)
alpha TRAV35 TRAJ42 CDR3: CAGMNYGGSQGNLIF
beta TRBV6-3 TRBJ1-2 CDR3: CASSYRGAYGYTF
On to B2, for which the binding result is “recognises”.
